Laboratory results published in patent US20240132578A1.

Legend:
Assay in all cases: cell-based or functional assay
[1] = target: HIV-1 Env of isolate MGRM-D-019 (pseudovirus) (HIV-1)
[2] = target: HIV-1 Env of isolate MGRM-A-005 (pseudovirus) (HIV-1)
[3] = target: HIV-1 Env of pseudovirus isolate MGRM-C-028 (clade C) (HIV-1)
[4] = target: HIV-1 Env of isolate MGRM-F1-006 (HIV-1)
[5] = target: HIV-1 Env of isolate MGRM-A-006 (pseudovirus) (HIV-1)
[6] = target: HIV-1 JR-CSF Env N392Q (HIV-1 (isolate JR-CSF)) (UniProt P20871)
[7] = target: HIV-1 Env of isolate MGRM-F1-010 (HIV-1)
[8] = target: HIV-1 Env of isolate MGRM-AG-003 (subtype AG) (HIV-1)
[9] = target: HIV-1 Env of isolate MGRM-AE-002 (subtype AE) (HIV-1)
[10] = target: HIV-1 MGRM-AG-005 envelope protein (Env) on pseudovirus (HIV-1)
[11] = target: HIV-1 Env of pseudovirus isolate MGRM-C-010 (clade C) (HIV-1)
[12] = target: HIV-1 JR-CSF Env D417A (HIV-1 (isolate JR-CSF)) (UniProt P20871)
[13] = target: HIV-1 Env of pseudovirus isolate 92BR020 (clade B) (HIV-1)
[14] = target: HIV-1 Env of isolate 92RW008 (subtype A) (HIV-1)
[15] = target: HIV-1 Env of isolate MGRM-C-026 (subtype C), on pseudovirus (HIV-1)
[16] = target: HIV-1 Env of isolate 92UG114 (HIV-1)
[17] = target: HIV-1 envelope glycoprotein (Env) of isolate MG RM-A-008, subtype A (HIV-1)
[18] = target: HIV-1 envelope glycoprotein (Env) of isolate MG RM-A-010, subtype A (HIV-1)
[19] = target: HIV-1 envelope glycoprotein (Env) of isolate MG RM-A-012, subtype A (HIV-1)
[20] = target: HIV-1 envelope glycoprotein (Env) of isolate MG RM-A-013, subtype A (HIV-1)
[21] = target: HIV-1 Env of isolate MGRM-AE-007 (pseudovirus) (HIV-1)
[22] = target: HIV-1 Env of isolate MGRM-F1-023 (pseudovirus) (HIV-1)
[23] = target: HIV-1 93IN905 Env (HIV-1)
[24] = target: HIV-1 envelope glycoprotein (Env) of isolate MG RM-AG-002 (HIV-1)
[25] = target: HIV-1 Env of pseudovirus MGRM-F1-022 (HIV-1)
[26] = target: HIV-1 Env of pseudovirus MGRM-D-018 (HIV-1)

Substance | IC50 (µg/mL), pseudovirus neutralization [1] [µg/mL] | IC50 (µg/mL), pseudovirus neutralization [2] [µg/mL] | IC50, pseudovirus neutralization [3] [µg/mL] | IC50 (µg/mL), pseudovirus neutralization [4] [µg/mL] | IC50 (µg/mL), pseudovirus neutralization [5] [µg/mL] | Fold IC50 increase relative to wild-type (pseudovirus neutralization) [6] [fold] | IC50 (µg/mL), pseudovirus neutralization [7] [µg/mL] | IC50, pseudovirus neutralization [8] [µg/mL] | IC50, pseudovirus neutralization [9] [µg/mL] | IC50 (ug/mL), pseudovirus neutralization [10] [µg/mL] | IC50, pseudovirus neutralization [11] [µg/mL] | Fold IC50 increase relative to wild-type (pseudovirus neutralization) [12] [fold] | IC50 (µg/mL), pseudovirus neutralization [21] [µg/mL] | further results
5343_B08 (PGT-135) (antibody) | > 50 | > 50 | 1.47 | > 50 | > 50 | > 250 | > 50 | > 50 | > 50 | > 10 | > 50 | 5 | – | –
4995_P16 (PGT-145) (antibody) | – | – | – | – | – | – | – | – | – | – | – | – | – | IC50, pseudovirus neutralization [13]: 1.05 µg/mL; IC50, pseudovirus neutralization [14]: 0.4 µg/mL; IC50, single-round pseudovirus neutralization [15]: > 50 µg/mL; IC50 (µg/mL), pseudovirus neutralization [16]: 20.1 µg/mL
5145_B14 (PGT-127) (antibody) | – | – | – | – | – | 1.1 | – | – | – | – | – | 0.4 | > 50 | IC50, pseudovirus neutralization [17]: > 50 µg/mL; IC50, pseudovirus neutralization [18]: 0.017 µg/mL; IC50, pseudovirus neutralization [19]: 0.105 µg/mL; IC50, pseudovirus neutralization [20]: 0.029 µg/mL; IC50 (µg/mL), pseudovirus neutralization [22]: 0.119 µg/mL
4877_D15 (PGT-122) (antibody) | – | – | – | – | – | – | – | – | – | > 10 | – | – | > 50 | IC50, pseudovirus neutralization [17]: > 50 µg/mL; IC50, pseudovirus neutralization [23]: 0.0138 µg/mL; IC50, pseudovirus neutralization [18]: 2.51 µg/mL; IC50, pseudovirus neutralization [19]: 0.257 µg/mL; IC50, pseudovirus neutralization [20]: 2.47 µg/mL; IC50 (µg/mL), pseudovirus neutralization [22]: 0.154 µg/mL
4980_N08 (PGT-143) (antibody) | – | – | – | – | – | – | – | – | – | – | – | – | – | IC50, pseudovirus neutralization [13]: 25.9 µg/mL; IC50, pseudovirus neutralization [14]: 0.385 µg/mL; IC50, single-round pseudovirus neutralization [15]: > 50 µg/mL; IC50 (µg/mL), pseudovirus neutralization [16]: > 50 µg/mL
PGV04 (antibody) | – | – | – | – | – | – | – | – | – | – | – | – | 5.75 | –
5147_N06 (PGT-130) (antibody) | > 50 | > 50 | > 50 | > 50 | > 50 | 1.2 | > 50 | 0.041 | 1.53 | 0.947 | > 50 | 1 | – | IC50, pseudovirus neutralization [23]: 0.0182 µg/mL
5136_H01 (PGT-131) (antibody) | > 50 | > 50 | > 50 | > 50 | > 50 | 0.4 | > 50 | 2.92 | > 50 | – | > 50 | 1 | – | –
4993_K13 (PGT-141) (antibody) | – | – | – | – | – | – | – | – | – | – | – | – | – | IC50, pseudovirus neutralization [13]: 20.3 µg/mL; IC50, pseudovirus neutralization [14]: 0.579 µg/mL; IC50, single-round pseudovirus neutralization [15]: > 50 µg/mL; IC50 (µg/mL), pseudovirus neutralization [16]: > 50 µg/mL
5345_I01 (PGT-137) (antibody) | > 50 | > 50 | > 50 | > 50 | > 50 | – | > 50 | > 50 | > 50 | – | > 50 | – | – | –
5123_A06 (PGT-125) (antibody) | – | – | – | – | – | 1.2 | – | – | – | > 10 | – | 0.5 | 0.876 | IC50, pseudovirus neutralization [17]: > 50 µg/mL; IC50, pseudovirus neutralization [23]: 0.0137 µg/mL; IC50, pseudovirus neutralization [18]: 0.004 µg/mL; IC50, pseudovirus neutralization [19]: 0.177 µg/mL; IC50, pseudovirus neutralization [20]: 0.014 µg/mL; IC50 (µg/mL), pseudovirus neutralization [22]: 0.12 µg/mL
PGT-145 (4995_P16) (antibody) | – | – | – | – | – | – | – | – | – | – | – | – | – | IC50 [24]: 0.056 µg/mL; IC50, pseudovirus neutralization [25]: 9 ng/mL; IC50, pseudovirus neutralization [26]: 0.065 µg/mL
